Test results from patent US20180251570A1 (Bayer, published 2018).
Values belong to the binder of their own block, whether it stands above or below them.

Target: T1, human tissue factor pathway inhibitor (TFPI) (human, UniProt P10646 29-304, limits assumed)
T1 construct: also called human TFPI (American Diagnostica)
T1 sequence (looked up): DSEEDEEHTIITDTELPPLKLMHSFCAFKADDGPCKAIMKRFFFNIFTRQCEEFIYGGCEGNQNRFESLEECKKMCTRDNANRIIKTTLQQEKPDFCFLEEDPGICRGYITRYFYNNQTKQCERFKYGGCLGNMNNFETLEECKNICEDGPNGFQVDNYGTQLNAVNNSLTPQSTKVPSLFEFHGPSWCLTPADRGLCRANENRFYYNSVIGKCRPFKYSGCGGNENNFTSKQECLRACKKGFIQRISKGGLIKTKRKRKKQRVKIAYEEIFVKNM
Assay: BIACORE kinetics, CM4 chip with low density of amine-coupled human TFPI, antibody injected
Procedure: A CM4 sensor chip was immobilized with a low density of human TFPI using an amine coupling kit (GE HealthCare). Kinetic assays of parental IgG and IgG-linker1 were conducted using different concentration of the antibodies, followed by regeneration with pH 1.5 glycine buffer. The parental IgG and IgG-linker1 antibodies at a concentration of 1 μg were digested with 1 unit of biotinylated thrombin (Novagen) for 1 hr at 37° C. The antibodies with or without digestion were injected to a BIACORE™ system for TFPI-binding analysis.

kon: 1.54e+06 M⁻¹ s⁻¹
B1: parental IgG (parental anti-TFPI antibody) (antibody)
heavy: EVQLVESGGGLVQPGGSLRLSCAASGFTFSSYGMDWVRQAPGKGLEWVSSIRGSRGSTYYADSVKGRFTISRDNSKNTLYLQMNSLRAEDTAVYYCARLYRYWFDYWGQGTLVTVSSASTKGPSVFPLAPCSRSTSESTAALGCLVKDYFPEPVTVSWNSGALTSGVHTFPAVLQSSGLYSLSSVVTVPSSNFGTQTYTCNVDHKPSNTKVDKTVERKCCVECPPCPAPPVAGPSVFLFPPKPKDTLMISRTPEVTCVVVDVSHEDPEVQFNWYVDGVEVHNAKTKPREEQFNSTFRVVSVLTVVHQDWLNGKEYKCKVSNKGLPAPIEKTISKTKGQPREPQVYTLPPSREEMTKNQVSLTCLVKGFYPSDIAVEWESNGQPENNYKTTPPMLDSDGSFFLYSKLTVDKSRWQQGNVFSCSVMHEALHNHYTQKSLSLSPG
light: SYELTQPPSVSVSPGQTARITCSGDNLPKYYAHWYQQKPGQAPVVVIFYDVNRPSGIPERFSGSNSGNTATLTISGTQAMDEADYYCQAWWSSTPVFGGGTKLTVLGQPKAAPSVTLFPPSSEELQANKATLVCLISDFYPGAVTVAWKADSSPVKAGVETTTPSKQSNNKYAASSYLSLTPEQWKSHRSYSCQVTHEGSTVEKTVAPTECS
notes: Expressed in HEK293 6E cells; also called Parent IgG; WT antibody

kon: 1.9e+06 M⁻¹ s⁻¹
B2: IgG-linker1 (protease-regulated anti-TFPI IgG, undigested) (antibody)
light: SYELTQPPSVSVSPGQTARITCSGDNLPKYYAHWYQQKPGQAPVVVIFYDVNRPSGIPERFSGSNSGNTATLTISGTQAMDEADYYCQAWWSSTPVFGGGTKLTVLGGGGSLVPRGSGGGGSGQPKAAPSVTLFPPSSEELQANKATLVCLISDFYPGAVTVAWKADSSPVKAGVETTTPSKQSNNKYAASSYLSLTPEQWKSHRSYSCQVTHEGSTVEKTVAPTECS
heavy: EVQLVESGGGLVQPGGSLRLSCAASGFTFSSYGMDWVRQAPGKGLEWVSSIRGSRGSTYYADSVKGRFTISRDNSKNTLYLQMNSLRAEDTAVYYCARLYRYWFDYWGQGTLVTVSSASGGGGSLVPRGSGGGGSTKGPSVFPLAPCSRSTSESTAALGCLVKDYFPEPVTVSWNSGALTSGVHTFPAVLQSSGLYSLSSVVTVPSSNFGTQTYTCNVDHKPSNTKVDKTVERKCCVECPPCPAPPVAGPSVFLFPPKPKDTLMISRTPEVTCVVVDVSHEDPEVQFNWYVDGVEVHNAKTKPREEQFNSTFRVVSVLTVVHQDWLNGKEYKCKVSNKGLPAPIEKTISKTKGQPREPQVYTLPPSREEMTKNQVSLTCLVKGFYPSDIAVEWESNGQPENNYKTTPPMLDSDGSFFLYSKLTVDKSRWQQGNVFSCSVMHEALHNHYTQKSLSLSPG
notes: Expressed in HEK293 6E cells; also called IgG2-linker1
